The record followed here is patent publication US20040038894A1, “Compounds for modulating cell negative regulations and biological applications thereof” (INSTITUT NATIONAL DE LA SANTE ET DE LA RECHERCHE MEDICALE …, priority 1996, published 2004).

One test addresses T1, SHP-2 (Rattus norvegicus, UniProt P41499).
T1 construct: RBL-2H3 cells were lysed in NP-40 lysis buffer; endogenous in cells; host or cells: RBL-2H3
T1 sequence (P41499 1-593): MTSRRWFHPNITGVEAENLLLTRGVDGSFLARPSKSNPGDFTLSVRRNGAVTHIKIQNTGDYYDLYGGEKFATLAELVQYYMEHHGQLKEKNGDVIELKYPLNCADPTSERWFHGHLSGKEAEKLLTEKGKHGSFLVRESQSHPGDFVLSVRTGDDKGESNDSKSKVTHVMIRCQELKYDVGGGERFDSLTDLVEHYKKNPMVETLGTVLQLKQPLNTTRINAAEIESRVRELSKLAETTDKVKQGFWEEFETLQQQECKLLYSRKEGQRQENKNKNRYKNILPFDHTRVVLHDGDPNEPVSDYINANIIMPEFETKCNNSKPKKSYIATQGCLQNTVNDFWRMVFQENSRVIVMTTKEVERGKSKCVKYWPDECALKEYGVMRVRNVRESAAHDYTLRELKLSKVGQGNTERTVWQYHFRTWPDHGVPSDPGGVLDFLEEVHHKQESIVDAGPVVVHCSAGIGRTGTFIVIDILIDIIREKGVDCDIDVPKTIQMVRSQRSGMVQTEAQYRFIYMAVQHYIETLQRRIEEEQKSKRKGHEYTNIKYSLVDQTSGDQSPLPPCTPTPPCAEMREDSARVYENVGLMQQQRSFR
The test can be described thus: Cell lysate adsorption to peptides, anti-SHP-2 immunoblot. It is filed as binding. The settings on record: RBL-2H3 lysates, peptide on streptavidin beads. How it is done: (§1) Assay for cell lysate adsorption to peptides. RBL-2H3 cells were lysed in NP-40 lysis buffer (1% NP-40, 10 mM Tris-HCl, 150 mM NaCl, 1 mM EDTA, 1 mM PMSF, 10 mM iodoacetamide, 10 mM NaF, 10 mM Na pyrophosphate, 0.4 mM Na vanadate, 10 μg/ml leupeptine, 10 μg/ml aprotinine). Samples were either used directly (whole cell lysates: WCL), or subjected to affinity purification using peptides bound to beads. Biotinylated peptides (5 μg) were coupled to 50 μl streptavidin-agarose bead slurry (Sigma) for 1 hour at 4° C., prior to bead saturation with D-biotin (1 mg/ml) for 1 hour at 4° C. After 3 washes in lysis buffer, samples were separated on SDS-PAGE and transferred to nitrocellulose.
(§2) RBL-2H3 and ^35S-labeled IIA.1.6 cells were lysed in NP-40 lysis buffer (1% NP-40, 10 mM Tris-HCl, 150 mM NaCl, 1 mM EDTA, 1 mM PMSF, 10 mM iodoacetamide, 10 mM NaF, 10 mM Na pyrophosphate, 0.4 mM Na vanadate, 10 μg/ml leupeptin, 10 μg/ml aprotinin). Samples were either used directly (whole cell lysates: WCL), or subjected to affinity purification using peptides bound to beads. Biotinylated peptides (5 μg) were coupled to 50 μl streptavidin-agarose slurry beads for 1 hour at 4° C., prior to bead saturation with D-biotin (1 mg/ml) for 1 hour at 4° C. After 3 washes in lysis buffer, samples were fractionated on 8% SDS-polyacrylamide gel electrophoresis (SDS-PAGE) under reducing condition and transferred to nitrocellulose.
(§3) Results are illustrated by FIG. 15 showing the in vitro interaction between NKG2A ITIMs and SHP-1, SHP-2 and SHIP phosphatases. In FIG. 15, RBL-2H3 cell lysates (15A) or ^35S-labeled ILA.1.6 cell lysates (15B) were absorbed with indicated biotinylated peptides coupled to streptavidin-beads. Affinity-bound proteins (30×10^6 cells/sample) or whole cell lysates (WCL, 5×10^6 cells/sample) were resolved on 8% SDS-PAGE under reducing conditions prior to autoradiography (15B), or immunoblotting using anti-SHIP antiserum, anti-SHP-2 mAb and anti-SHP-1 mAbs (15A).

The target in a further test is T2, SHIP (Rattus norvegicus, UniProt P97573).
T2 construct: RBL-2H3 cells were lysed in NP-40 lysis buffer; endogenous in cells; host or cells: RBL-2H3
T2 sequence (P97573 1-1190): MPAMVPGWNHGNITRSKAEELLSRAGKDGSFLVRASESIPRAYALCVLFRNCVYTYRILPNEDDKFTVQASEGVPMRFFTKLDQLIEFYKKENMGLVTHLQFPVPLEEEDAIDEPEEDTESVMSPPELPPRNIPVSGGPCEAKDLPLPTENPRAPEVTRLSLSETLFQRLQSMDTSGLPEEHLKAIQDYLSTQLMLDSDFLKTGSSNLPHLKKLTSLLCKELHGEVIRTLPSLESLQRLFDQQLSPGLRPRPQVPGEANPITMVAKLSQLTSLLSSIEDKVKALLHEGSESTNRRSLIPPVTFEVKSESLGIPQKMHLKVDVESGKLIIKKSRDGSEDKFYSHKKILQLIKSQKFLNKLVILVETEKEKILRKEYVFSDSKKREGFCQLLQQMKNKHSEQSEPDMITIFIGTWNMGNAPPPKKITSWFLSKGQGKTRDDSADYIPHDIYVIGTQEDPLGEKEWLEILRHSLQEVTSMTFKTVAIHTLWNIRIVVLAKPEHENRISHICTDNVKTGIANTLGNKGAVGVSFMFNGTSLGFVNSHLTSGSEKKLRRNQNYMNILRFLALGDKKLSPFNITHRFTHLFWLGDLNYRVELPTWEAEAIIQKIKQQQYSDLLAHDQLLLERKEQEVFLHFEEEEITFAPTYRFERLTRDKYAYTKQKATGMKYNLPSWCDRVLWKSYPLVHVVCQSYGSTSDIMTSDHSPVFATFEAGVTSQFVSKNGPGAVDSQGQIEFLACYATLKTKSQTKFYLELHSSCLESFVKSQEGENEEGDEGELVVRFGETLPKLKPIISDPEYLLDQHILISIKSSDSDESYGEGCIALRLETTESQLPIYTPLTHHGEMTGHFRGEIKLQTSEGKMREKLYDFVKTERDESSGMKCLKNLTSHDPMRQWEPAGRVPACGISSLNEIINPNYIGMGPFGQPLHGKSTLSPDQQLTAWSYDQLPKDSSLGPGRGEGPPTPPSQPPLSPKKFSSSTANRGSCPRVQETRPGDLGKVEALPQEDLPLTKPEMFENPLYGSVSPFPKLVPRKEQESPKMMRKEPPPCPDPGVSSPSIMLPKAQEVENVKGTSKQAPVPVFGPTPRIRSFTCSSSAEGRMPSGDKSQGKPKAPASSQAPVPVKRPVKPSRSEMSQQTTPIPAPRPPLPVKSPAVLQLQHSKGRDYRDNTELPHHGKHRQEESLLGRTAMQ
The test can be described thus: Cell lysate adsorption to peptides, anti-SHIP immunoblot. It is filed as binding. The settings on record: RBL-2H3 lysates, peptide on streptavidin beads. How it is done: as §1, §2, §3

The next test concerns the target T3, SHP-1 (Rattus norvegicus, UniProt P81718).
T3 construct: endogenous in cells; host or cells: RBL-2H3
The test can be described thus: Cell lysate adsorption to peptides, anti-SHP-1 immunoblot. It is filed as binding. The settings on record: RBL-2H3 lysates, peptide on streptavidin beads. How it is done:
as §1, §2, §3

The next test concerns the target T4, GST-SHP-1.SH2(N) (Mus musculus, UniProt P29351).
T4 construct: recombinant fusion proteins corresponding to the isolated N- and C-SH2 domains of SHP-1; made in house; host or cells: E. coli DH5α
T4 sequence (P29351 4-100 limits assumed): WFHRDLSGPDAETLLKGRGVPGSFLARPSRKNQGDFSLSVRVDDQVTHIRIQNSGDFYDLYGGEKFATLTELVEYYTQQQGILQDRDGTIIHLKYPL
Description: Surface plasmon resonance (BIAcore), SHP-1 N-SH2 domain. In kind it is binding, murine. How it is done: (§4) Fusion proteins and surface plasmon resonance analysis. Surface plasmon resonance (SPR) measurements were performed on a BIAcore™ (Pharmacia). The GST-SHP-1.SH2(NC), GST-SHP-1.SH2(N), GST-SHP-1.SH2(C), GST-SHIP.SH2 fusion proteins generated from the murine phosphatase cDNA, were purified from DH5α lysates. Briefly, overnight culture at 37° C. in LB medium containing 50 μg/ml ampicillin was diluted 1/10 in fresh medium, and incubated until the absorbance at 600 nm reaches 1-2. At that point, IPTG was added (1 mM), and incubation continued for an additional 4 hours at 37° C. After centrifugation, bacteria pellet was resuspended in TENGN buffer (50 mM Tris pH 8, 1 mM EDTA, 10% glycerol, 1% NP40, 1 mM DTT, 1 mM PMSF, 10 μg/ml aprotinin and 10 μg/ml leupeptine). Bacteria were lysed by sonication. After centrifugation, supernatant was incubated with Glutathione-Sepharose 4B beads (Pharmacia) overnight at 4° C. with slow shaking. After 3 washes with 50 mM Tris pH 8, elution of the fusion protein was carried out using 50 mM Tris pH 8 supplemented with 10 mM reduced glutathione. Before their use in BIAcore™ experiments, fusion proteins were dialyzed in HBS buffer (10 mM HEPES, 150 mM NaCl, 3.4 mM EDTA). Protein purity was assessed by 12.5% SDS-PAGE, and Coomassie blue staining. The running buffer used in all BIAcore™ experiments consisted of HBS buffer supplemented with 0.05% surfactant P20. For preparation of microchips coated with phosphorylated peptides, immunopure streptavidine (Sigma) was first immobilized onto CMS-sensorchip. Then, biotinylated peptides were injected, and their binding to streptavidine-coated microchips was assessed using anti-phosphotyrosine 4G10 mAb (UHI).
(§5) The measurement of phosphorylated p58.2 peptide binding to GST-SHP-1.SH2(N) and GST-SHP-1.SH2(C) fusion proteins was at a constant 5 μl/min flow rate. In the representative experiment of which results are reported in the above table I, 130 and 160 RU of respectively p58.2.1 and p58.2.2 peptides were immobilized on microchips. The regeneration was performed using HBS buffer supplemented with 0.03% SDS. Results are expressed as corrected resonance units (CRU) corresponding to the raw RU values subtracted from background RU value due to the injection medium. […] koff and kon were calculated from three independent measurements using the BLAevaluation 2.0 software. Kd was calculated from koff/kon.

A further test concerns the target T5, GST-SHP-1.SH2(C) (Mus musculus, UniProt P29351).
T5 construct: recombinant fusion proteins corresponding to the isolated N- and C-SH2 domains of SHP-1; made in house; host or cells: E. coli DH5α
T5 sequence (P29351 110-213 limits assumed): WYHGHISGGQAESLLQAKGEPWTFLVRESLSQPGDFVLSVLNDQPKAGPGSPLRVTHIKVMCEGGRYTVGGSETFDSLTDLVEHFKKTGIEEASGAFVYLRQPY
Description: Surface plasmon resonance (BIAcore), SHP-1 C-SH2 domain. It is filed as binding, murine. The settings on record: phosphorylated peptide immobilized; 5 μl/min. How it is done:
as §4, §5

Where [1] appears, read: phosphorylated peptide immobilized, 5 μl/min.

Where a SMILES comes first, the peptide text is derived from it. Where no end group is shown, it is not given here. The star is where a group is joined. Biotin = O=C1N[C@H]2[C@H](CS[C@H]2CCCCC(=O)*)N1

T3 sequence (P81718 whole entry): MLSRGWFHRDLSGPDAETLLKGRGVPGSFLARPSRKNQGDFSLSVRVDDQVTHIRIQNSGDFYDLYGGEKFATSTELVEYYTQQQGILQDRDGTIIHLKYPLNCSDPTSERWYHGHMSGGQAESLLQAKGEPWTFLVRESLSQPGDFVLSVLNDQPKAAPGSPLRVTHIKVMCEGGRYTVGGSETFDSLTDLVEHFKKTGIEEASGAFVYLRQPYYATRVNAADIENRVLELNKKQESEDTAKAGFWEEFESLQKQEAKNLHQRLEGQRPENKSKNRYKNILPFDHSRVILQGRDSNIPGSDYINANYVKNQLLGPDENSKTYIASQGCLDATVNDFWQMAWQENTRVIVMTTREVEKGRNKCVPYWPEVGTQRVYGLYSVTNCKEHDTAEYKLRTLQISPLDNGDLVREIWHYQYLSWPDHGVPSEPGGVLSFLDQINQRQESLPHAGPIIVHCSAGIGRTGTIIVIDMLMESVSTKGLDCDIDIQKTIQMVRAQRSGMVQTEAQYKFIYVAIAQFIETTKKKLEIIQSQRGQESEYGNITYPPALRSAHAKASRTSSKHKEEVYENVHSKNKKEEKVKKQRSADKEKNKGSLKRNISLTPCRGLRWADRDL

Turning to “KTEAENTITY262SLLK [FcγRIIB ITIM] (Biotin-KTEAENTITYSLLK) [murine FcγRIIB1/B2 ITIM peptide]”, the “binding of SHP-2 from cell lysates” value with SHP-2 is listed as “recruit”. The results for the “binding of SHIP from cell lysates” value with SHIP and in the test with SHIP (listed as FcγRIIB phosphorylated ITIM peptides) were “recruit” and “associate”, respectively. Besides, the “binding of SHP-1 from cell lysates” value with SHP-1 is reported as “recruit”.
`CC[C@H](C)[C@H](NC(=O)[C@H](CC(=O)O)NC(=O)[C@@H](NC(=O)[C@@H]1CCCN1C(=O)[C@@H]1CCCN1C(=O)[C@@H](NC(=O)[C@H](CCCCN)NC(=O)[C@@H]1CCCN1C(=O)[C@H](CCCNC(=N)N)NC(=O)[C@H](CCC(N)=O)NC(=O)[C@H](CO)NC(=O)[C@@H]1CCCN1C(=O)[C@H](CCCNC(=N)N)NC(=O)CCCC[C@@H]1SC[C@@H]2NC(=O)N[C@@H]21)[C@@H](C)O)[C@@H](C)O)C(=O)N[C@H](C(=O)N[C@H](C(=O)N[C@@H](Cc1ccc(OP(=O)(O)O)cc1)C(=O)N[C@H](C(=O)N[C@@H](CCC(=O)O)C(=O)N[C@@H](CC(C)C)C(=O)N1CCC[C@H]1C(=O)N[C@@H](CC(N)=O)C(=O)N[C@@H](C)C(=O)N[C@@H](CCC(=O)O)C(=O)N1CCC[C@H]1C(=O)O)[C@@H](C)O)C(C)C)[C@@H](C)CC` [p58.2.2, RP SQ RPKTPPTDIIVY333TELPNAEP] (HELM PEPTIDE1{[O=C1N[C@H]2[C@H](CS[C@H]2CCCCC(=O)[*:2])N1].R.P.S.Q.R.P.K.T.P.P.T.D.I.I.V.[O=C([C@H](Cc1ccc(OP(=O)(O)O)cc1)N[*:1])[*:2]].T.E.L.P.N.A.E.P}$$$$V2.0) had a Kd on GST-SHP-1.SH2(N) of 3.16 µM. Besides, the koff on GST-SHP-1.SH2(N) (setting [1]) stood at 0.025 s⁻¹; on GST-SHP-1.SH2(C), 0.0003 s⁻¹. For the same compound, the figures for the kon at GST-SHP-1.SH2(N) (setting [1]) and at GST-SHP-1.SH2(C) were 8000 M⁻¹ s⁻¹ and 600 M⁻¹ s⁻¹, respectively.
For the compound “KTEAENTATY262SLLK (KTEAENTATYSLLK) [FcγRIIB 1-I260A, point mutant of FcγRIIB ITIM peptide]”, in the test with SHP-2, the “binding of SHP-2 from cell lysates” value is “abolishes the binding”. Further, in the test with SHIP, the “binding of SHIP from cell lysates” value is reported as “not affected”. Further, the “binding of SHP-1 from cell lysates” value with SHP-1 is “abolishes the binding”.
Take “DEQDPQEATY303AQLN (DEQDPQEATYAQLN) [p58.2.1-V301A, point mutant of KIR N-terminal ITIM peptide]”: the “binding of SHP-2 from cell lysates” value with SHP-2 is on record as “abolishes the binding”. Besides, in the test with SHP-1, the “binding of SHP-1 from cell lysates” value is “abolishes the binding”.
With “KTEAENTITY262SLLK [nonphosphorylated peptides corresponding to FcγRIIB]”, the “binding of SHP-2 from cell lysates” value at SHP-2 is recorded as “No association”. Besides, the “binding of SHIP from cell lysates” value on SHIP is recorded as “No association”. Besides, on SHP-1, the “binding of SHP-1 from cell lysates” value is reported as “No association”.
